Measurements published in article PMC4407695 (Journal of molecular biology, 2014).

T1: Merlin(S518D) (human, UniProt P35240 1-595, S518D)
T1 sequence (looked up): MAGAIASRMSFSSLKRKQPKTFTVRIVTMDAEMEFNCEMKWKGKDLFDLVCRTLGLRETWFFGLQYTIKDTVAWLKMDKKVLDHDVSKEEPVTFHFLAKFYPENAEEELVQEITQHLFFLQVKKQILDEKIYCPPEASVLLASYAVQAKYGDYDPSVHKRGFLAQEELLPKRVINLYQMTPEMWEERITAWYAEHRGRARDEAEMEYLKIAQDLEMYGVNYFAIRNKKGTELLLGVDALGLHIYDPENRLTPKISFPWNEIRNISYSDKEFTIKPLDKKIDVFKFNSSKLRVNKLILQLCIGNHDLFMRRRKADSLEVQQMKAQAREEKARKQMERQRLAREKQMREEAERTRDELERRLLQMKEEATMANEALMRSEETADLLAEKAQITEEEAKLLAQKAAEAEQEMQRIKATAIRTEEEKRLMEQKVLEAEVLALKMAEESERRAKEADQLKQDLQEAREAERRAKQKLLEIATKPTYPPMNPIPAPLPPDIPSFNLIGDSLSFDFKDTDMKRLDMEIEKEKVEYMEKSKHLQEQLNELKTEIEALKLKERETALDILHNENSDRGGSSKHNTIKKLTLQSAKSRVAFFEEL

T2: wild-type full-length Merlin(wt) (human, UniProt P35240 1-595)
T2 sequence (looked up): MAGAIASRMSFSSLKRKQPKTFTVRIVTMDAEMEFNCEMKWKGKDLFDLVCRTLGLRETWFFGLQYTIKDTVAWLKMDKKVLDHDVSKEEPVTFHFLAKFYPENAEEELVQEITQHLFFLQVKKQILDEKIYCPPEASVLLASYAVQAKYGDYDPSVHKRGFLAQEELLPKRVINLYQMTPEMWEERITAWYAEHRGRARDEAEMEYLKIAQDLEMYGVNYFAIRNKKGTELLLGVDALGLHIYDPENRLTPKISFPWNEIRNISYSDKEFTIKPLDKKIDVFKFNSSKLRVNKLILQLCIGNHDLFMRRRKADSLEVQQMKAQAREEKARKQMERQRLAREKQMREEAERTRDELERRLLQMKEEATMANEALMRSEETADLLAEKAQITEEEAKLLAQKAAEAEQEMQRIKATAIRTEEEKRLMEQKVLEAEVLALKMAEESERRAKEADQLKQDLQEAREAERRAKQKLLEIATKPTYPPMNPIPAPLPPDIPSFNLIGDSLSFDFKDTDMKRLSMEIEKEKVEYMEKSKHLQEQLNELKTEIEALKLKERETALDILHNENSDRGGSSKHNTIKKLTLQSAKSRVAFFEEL

B1: FERM domain of Merlin (domain or fragment, human, UniProt P35240 22-311, looked up)
chain: FTVRIVTMDAEMEFNCEMKWKGKDLFDLVCRTLGLRETWFFGLQYTIKDTVAWLKMDKKVLDHDVSKEEPVTFHFLAKFYPENAEEELVQEITQHLFFLQVKKQILDEKIYCPPEASVLLASYAVQAKYGDYDPSVHKRGFLAQEELLPKRVINLYQMTPEMWEERITAWYAEHRGRARDEAEMEYLKIAQDLEMYGVNYFAIRNKKGTELLLGVDALGLHIYDPENRLTPKISFPWNEIRNISYSDKEFTIKPLDKKIDVFKFNSSKLRVNKLILQLCIGNHDLFMRRR
B2: NHERF1 (natural protein, UniProt O14745 1-358, looked up)
chain: MSADAAAGAPLPRLCCLEKGPNGYGFHLHGEKGKLGQYIRLVEPGSPAEKAGLLAGDRLVEVNGENVEKETHQQVVSRIRAALNAVRLLVVDPETDEQLQKLGVQVREELLRAQEAPGQAEPPAAAEVQGAGNENEPREADKSHPEQRELRPRLCTMKKGPSGYGFNLHSDKSKPGQFIRSVDPDSPAEASGLRAQDRIVEVNGVCMEGKQHGDVVSAIRAGGDETKLLVVDRETDEFFKKCRVIPSQEHLNGPLPVPFTNGEIQKENSREALAEAALESPRPALVRSASSDTSEELNSQDSPPKQDSTAPSSTSSSDPILDFNISLAMAKERAHQKRSSKRAPQMDWSKKNELFSNL

What was measured:
NHERF1 [1] = molecular target: B2; assay: ITC
NHERF1 [2] = molecular target: B2; assay: SPR
Merlin(S518D) [3] = molecular target: T1, Merlin(S518D); assay: ITC
[4] = molecular target: T2, wild-type full-length Merlin(wt); assay: ITC
FERM domain of Ezrin = FERM domain of Ezrin (UniProt P15311 2-296); assay: ITC
FERM domain of Ezrin, sequence (P15311 2-296): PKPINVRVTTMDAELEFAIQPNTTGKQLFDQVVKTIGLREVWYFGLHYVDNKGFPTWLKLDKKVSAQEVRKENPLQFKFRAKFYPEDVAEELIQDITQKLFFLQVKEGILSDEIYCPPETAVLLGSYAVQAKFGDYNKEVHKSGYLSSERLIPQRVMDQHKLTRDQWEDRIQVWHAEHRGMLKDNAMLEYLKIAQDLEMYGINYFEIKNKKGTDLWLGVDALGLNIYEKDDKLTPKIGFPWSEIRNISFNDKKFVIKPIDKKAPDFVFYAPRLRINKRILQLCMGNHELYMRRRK

FERM domain of Merlin = molecular target: B1; assay: ITC
Merlin(S518D) [5] = molecular target: T1, Merlin(S518D); assay: SPR
[6] = molecular target: T2, wild-type full-length Merlin(wt); assay: SPR

Kd (NHERF1 [1]) | Kd (NHERF1 [2]) | Kd (Merlin(S518D) [3]) | stoichiometry N (Merlin(S518D) [3]) | Kd [4] | stoichiometry N [4] | stoichiometry N (FERM domain of Ezrin) | stoichiometry N (FERM domain of Merlin) | Kd (Merlin(S518D) [5]) | Kd [6] | Binder
649 ± 18 nM | 459 ± 38 nM | – | – | – | – | – | – | – | – | B1
– | – | 1570 ± 322 nM | 0.39 | 855 ± 160 nM | 0.37 | 1.06 | 0.93 | 1240 ± 220 nM | 956 ± 70 nM | B2
